According to the supplement of paper PMC12667976:

B1: library; numbered along this chain (parent)
chain: MATDAALRRLLRLHRTEIAVAVDSAFPLLHALADHDVVPEDKFQETLHLKEKEGCPQAFHALLSWLLTQDSTAILDFWRVLFKDYNLERYGRLQPILDSFPKDVDLSQPRKGRKPPAVPKALVPPPRLPTKRKASEEARAAAPAALTPRGTASPGSQLKAKPPKKPESSAEQQRLPLGNGIQTMSASVQRAVAMSSGDVPGARGAVEGILIQQVFESGGSKKCIQVGGEFYTPSKFEDSGSGKNKARSSSGPKPLVRAKGAQGAAPGGGEARLGQQGSVPAPLALPSDPQLHQKNEDECAVCRDGGELICCDGCPRAFHLACLSPPLREIPSGTWRCSSCLQATVQEVQPRAEEPRPQEPPVETPLPPGLRSAGEEVRGPPGEPLAGMDTTLVYKHLPAPPSAAPLPGLDSSALHPLLCVGPEGQQNLAPGARCGVCGDGTDVLRCTHCAAAFHWRCHFPAGTSRPGTGLRCRSCSGDVTPAPVEGVLAPSPARLAPGPAKDDTASHEPALHRDDLESLLSEHTFDGILQWAIQSMARPAAPFPS

Variants of: B1
Assay: AIRE transcriptional activation functional score (insulin promoter-GFP; nonsense median 0, synonymous median 1) (normalised score); higher = higher AIRE activity (more reporter activation)
Conditions: with insulin promoter-GFP reporter in HEK293
Procedure: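 Deep mutational scan of full-length human AIRE (codon-optimized cDNA, DT-POPCode NNN libraries over three regions) integrated at a Bxb1 landing pad in HEK293 cells carrying an insulin core promoter-GFP reporter at a Flp-In site. Cells were sorted for the top 10% GFP about 14 days after transfection. Variant frequency log-ratios (select vs non-select, TileSeq) were rescaled so that the nonsense median is 0 and the synonymous median is 1, then averaged over biological replicates.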

AIRE transcriptional activation functional score: each site, then its substitutions
H35: D -0.476, T -0.0166, N 0.76, I 0.107, W 0.553, P 0.148, K -0.196, M -0.719, L -0.231, R -0.213, G 0.0779, E -0.848, V 0.15, Q -0.305, A 0.00595, C -0.102, S 0.352, Y 0.805, F 0.0268
A21: T -0.00846, M 0.432, N 0.54, V 0.278, P 0.125, Q -0.205, R 0.00134, G 0.0519, I -0.0753, L -0.19, S 0.0464, Y 0.166, W -0.574, H 0.216
L29: F -0.401, A -0.0346, P -0.138, Q 0.317, I 0.187, H -0.121, D -0.402, S -0.0413, M -0.19, G -0.175, T -0.208, K 0.34, N 0.195, C -0.201, W 0.224, R 0.468, V 0.342, Y -0.0248
A25: L 1.16, T 0.533, H -1.85, W -0.59, C 0.493, V 1.01, N -1.11, K 0.411, P 0.792, Y -0.882, I 0.925, R 0.337, Q 0.196, G 0.475, D 0.297, S 0.301, F 0.583
V38: Q -0.0109, S -0.704, C 0.438, N -0.701, P -0.205, W -0.576, A -0.245, T 0.604, R 0.941, Y 0.622, G -0.618, K 0.354, M 0.387, D -0.427, I 1.55, F -0.138, L 0.157
V37: I 0.337, A -0.162, K 0.536, R 0.122, F 0.178, M -1.53, C -0.563, L -0.0654, D 0.512, G 0.192, Y 0.262, W -0.538, H 0.218, E -0.336, S -0.316
D36: K 0.212, E 1.34, I 0.0675, N 1.07, S 0.294, W 0.641, Q -0.178, G 0.788, P 0.171, F -0.636, L -0.0069, C -0.525, H -1.75, V -0.422, A 0.22, T -0.367, M -0.672, Y 0.501, R 0.583
P27: I 0.28, Q 0.267, R 0.196, W 0.934, Y -0.654, D -0.285, S 0.41, N 0.263, M -0.268, V -0.229, L 0.398, K 0.0588, G 0.0337, A 0.562, H 0.254, T 0.0492, E -0.123, C -0.00711, F -0.037
E40: C -1.11, D 0.418, A -0.436
A33: G 0.554, N 1.58, S 0.0699, I -1.54, W 0.679, F 0.348, K -0.895, P -0.0164, T 0.426, D -1.07, V 1.53, Y 0.238, C 0.846, E 0.898, L 0.173, R -0.705
L28: Y -0.212, N -1.05, E -1.34, W -2.53, H -2.61, P 0.00884, A -0.115, V 0.05, S -0.39, C -0.067, G 0.239, Q 0.552, T 0.6, R 0.297, K 0.863, F -0.285, D -0.558, M 0.175, I 0.53
V22: S -0.103, D -0.245, K -1.05, C -0.0794, E -1.03, I 1.57, P -0.118, N -0.13, Y -0.0365, H 0.157, T -0.0112, M -0.505, G -0.0564, L 0.487, R 0.528, F -0.0603, A 0.0736, W -0.0929
L32: N -0.605, F -0.313, Y 0.28, G -0.111, A -0.972, Q -0.665, S -0.125, M -0.0821, W -1.32, I -0.434, C -0.199, V -0.331, H -0.413, R -0.205, P -0.841, T -0.512
A31: R -0.0467, S 0.0612, G 0.0886, P -0.0989, Y 1.22, I 0.231, D 0.894, W -0.0372, L 0.635, Q 0.778, V -0.00796, F -0.218, T -0.678, C -0.0426, H -0.698, N -0.416
D23: R -0.0795, F 0.3, W -1, S 0.041, M 0.267, C -0.0222, I 0.125, Q -0.673, L -0.372, H 1.33, Y -0.199, V -0.286, G 0.031, A -0.24, P -0.613, T -0.174, E 1.02, K -0.339, N -0.303
D34: S -0.594, N 0.331, I -0.247, H 1.62, C -0.617, P 0.782, R -0.24, E -2.11, V 0.0819, M -1.08, A -0.1, W -0.393, L 0.437, Q -0.011, G 0.43, Y -0.0055, F 0.247, T -1.22
F26: H -0.678, R -0.107, Q -2.95, I -0.664, T 0.422, E -0.35, A -0.171, K -0.369, M -1, N 0.281, S 0.0967, V -0.0518, W 1.21, D 0.00972, Y -0.359, P 0.00822, L -0.13, C -0.0618, G -0.298
H30: M 0.839, N 0.384, R 0.24, A -0.75, D 0.0821, W -0.339, F 0.0787, S 0.156, T -0.172, P -0.0919, Q -0.357, C 0.429, I -0.51, L 0.0371, E 0.323, V -0.417, Y 1.23, K 0.682, G 0.000219
S24: T -0.0952, M 1.04, G 0.358, W -0.0451, Q -0.0656, D 0.577, R 0.239, K 1.61, I 0.123, L -0.159, A -0.0275, V 0.582, C 0.658, F 0.0274, Y 0.463, H -0.0302, P -0.246, E 0.661
P39: V -1.34, M -0.22, A -0.568, H 0.277, Q 0.348, G -0.241, Y -1.28, E 0.999, S 0.402, T 1.25, W 0.403, L -0.0747, R 0.0519, K -0.314, F 1.34
